We go through one substance from patent US20230122862A1.

This assay concerns the target CD23 coated on ELISA plates (UniProt P06734). Kind of assay: ELISA, CD23 coated, pre-formed mAb:IgE complex added, anti-human IgG Fc-HRP detection.

Turning to “pre-formed UB-221:IgE complex (from UniProt P01854 1-428)”, the concentration for a half-maximal effect (EC50) amounted to 0.0416 mg/L.
